In paper PMC2172933 one finds percent of the amount of spectrin that coprecipitated with NCAM180 (set to 100%) data, which are given here for one substance.

The target of this assay is neural cell adhesion molecule 140 (NCAM140), rat, expressed in CHO cells (rat) (UniProt P13596). Kind of assay: co-IP.
Chain of UniProt P13596 (P13596 20-858): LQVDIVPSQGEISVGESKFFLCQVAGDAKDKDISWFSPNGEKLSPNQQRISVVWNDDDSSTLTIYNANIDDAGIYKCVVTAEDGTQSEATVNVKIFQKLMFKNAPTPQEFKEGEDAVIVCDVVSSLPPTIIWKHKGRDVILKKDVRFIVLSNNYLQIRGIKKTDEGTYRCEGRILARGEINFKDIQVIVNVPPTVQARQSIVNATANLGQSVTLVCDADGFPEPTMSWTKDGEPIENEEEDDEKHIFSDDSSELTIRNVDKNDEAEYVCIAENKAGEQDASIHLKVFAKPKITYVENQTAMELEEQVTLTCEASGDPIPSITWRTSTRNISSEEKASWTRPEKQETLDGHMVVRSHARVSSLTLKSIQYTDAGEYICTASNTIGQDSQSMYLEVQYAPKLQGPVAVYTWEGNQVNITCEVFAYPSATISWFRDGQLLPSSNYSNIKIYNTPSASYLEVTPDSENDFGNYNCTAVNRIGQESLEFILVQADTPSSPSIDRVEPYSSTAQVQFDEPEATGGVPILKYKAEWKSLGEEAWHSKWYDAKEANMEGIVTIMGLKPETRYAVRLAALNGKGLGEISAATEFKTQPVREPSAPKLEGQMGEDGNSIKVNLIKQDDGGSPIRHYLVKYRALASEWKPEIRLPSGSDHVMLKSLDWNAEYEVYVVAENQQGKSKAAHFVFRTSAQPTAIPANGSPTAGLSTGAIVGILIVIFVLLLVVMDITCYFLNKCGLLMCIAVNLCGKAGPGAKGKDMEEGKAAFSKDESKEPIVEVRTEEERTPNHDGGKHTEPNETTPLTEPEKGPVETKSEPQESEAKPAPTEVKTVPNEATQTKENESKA

Substance “βI spectrin, endogenous in CHO cells, A0A9J7GYU9 1-2329” showed a percent of the amount of spectrin that coprecipitated with NCAM180 (set to 100%) of 69.8%.
